Data reported in the DeepSol protein solubility set.

Assay: soluble on expression in E. coli; label from the status in PepcDB or PDB records

Q: For “MSLNKTQAQVSHALKSLARKEEWKHRLQQSEELHDILLKAANRYVAGEKRSDGLAIARKLQAKGYGISLENIGENTKLLAQCREAKMEFDQLIEDVGAIAPGQTVSFDLSHIGLSYQFDTAYGHLIELAEKANEHEVTLMISMEESTKTDQILAVYRQAAELYSNIGITLQAHLFRTPDDLRKLVQLPGKIRIVKGAYQEPSHLAMERSDYLNNRYLELVDHLVSTNHPVSVATHDQKLLEEMERRQFLQSTDVEIEMLYGIQPSQLKLFKEKGYQTRVYLTYGHEWFLYLCHRLAEYPENIYTALIDIINPSLPKVDDMYEGHHHHHH”, which “soluble on expression in E. coli” value is on record?
A: The value was “soluble”.

Q: For “MSLNLAKRILQGEQLTKETVLKIYEDTNIDTLDLLNEAYILRKHYFGKKVKLNMILNAKSGICPENCGYCGQSRDIKQKQRYALIPEEQIIDGAKVAHDNHIGTYCIVMSGRGPSDKEVDHISNTVRTIKSQHPQLKICACLGLTNDEQAKKLKSAGVDRYNHNINTSENYHDNVVTTHSYKDRTDTIELMKANNISPCSGVICGMGESNQDIVDMAFALKEMDADSIPINFLHPIKGTKFGSMDDLTPMKCLRIVALFRLINPTKEIRIAGGREVNLRSLQPLALKAANSIFVGDYLITGGQPNQLDYDMINDLGFEIDYDTCENKENKNDVSRANEGHHHHHH”, which “soluble on expression in E. coli” value is on record?
A: Its value is “soluble”.

Q: For “MSLNLGDLTNFVEKPLAAVSNIVNTPNSAGRYRPFYLRNLLDAVQGRNLNDAVKGKVVLITGGSSGIGAAAAKKIAEAGGTVVLVARTLENLENVANDIRAIRGNGGTAHVYPCDLSDMDAIAVMADQVLGDLGGVDILINNAGRSIRRSLELSYDRIHDYQRTMQLNYLGAVQLILKFIPGMRERHFGHIVNVSSVGVQTRAPRFGAYIASKAALDSLCDALQAETVHDNVRFTTVHMALVRTPMISPTTIYDKFPTLTPDQAAGVITDAIVHRPRRASSPFGQFAAVADAVNPAVMDRVRNRAFNMFGDSSAAKGSESQTDTSELDKRSETFVRATRGIHWEGHHHHHH”, which “soluble on expression in E. coli” value is on record?
A: Its value is “not soluble”.

Q: With “MSLNLQSKKRAWIVGKEHYDLGNDLFSRMLDPYMQYSCAYWKDADTLEAAQQAKLKLICEKLQLQPGMRVLDIGCGWGGLSQYMATHYGVSVVGVTISAEQQKMAQTRCEGLDVSILLEDYRDLNDQFDRIVSVGMFEHVGPKNYNTYFEVVDRNLKPDGLFLLHTIGSKKTDHNVDPWINKYIFPNGCLPSVRQIAEASESHFVMEDWHNFGADYDTTLMAWHERFINAWPEIAGNYNERFKRMFSYYLNACAGAFRARDIQLWQVVFTRGVENGLRVPREGHHHHHH” as the sequence, how does the “soluble on expression in E. coli” value read?
A: The value was “not soluble”.

Q: For “MSLNNIDNIINFINKTPKSELHLHIEGSLEPELMFKLSKRNKIEIPFKSVEDIKSAYNFSNLDSFLKIYYEGSNVLITEEDFFDLTWEYILRCKKDNIVHTEIFFDPQSHTSRGIKFDIIINGIHKALAKANDEFGITSKIIMCFLRHLDEKLCFDVLKDAIQHKDKIIGVGLDSSEKGNPPKKFKRLFEEAIKEGFLTVAHAGEEGPPEYIWDSLNLLKVKRIDHGVQCLKDDDLVKNLKENNIPLTVCPLSNIKLCVFDKLENHNLKKMLEKGLRVMVNSDDPAYFGGYLNKNLIEISKALNLNLEQVKVLIQNSFKSSFLDKKSKSKWLSKVEGHHHHHH”, which “soluble on expression in E. coli” value is on record?
A: The value was “soluble”.

Q: For “MSLNPMIAKQKPNGNIQCLVCNAEIKPKIWTAHVNGKKHRDSIEKLKTSAQKRGKESSTRNTDEPPNKKQKEVPNQGPTTLPTDFFDDESTPFRKDDSKTATVGHNSNLIEGVPAGFFDDKRLDGNVRETRERNAELDAEYERWKEEIGEEQVELDTKAEELEAAVQRELELERIDEQMAALKKLNDMEIQKEKRLNQARERRLKREEPEEEEDDDGEDIDLDALDWRAKNIFA”, which “soluble on expression in E. coli” value is on record?
A: The value was “not soluble”.

Q: For “MSLNRSSFDLLSTVEYGGCSAKLDPAKLSELLHDIPLPVDSRIMVDVSTHDDAGVYRLNDDTALIVTTDFFPPVCSDPYTFGRIAAANALSDVYAMGGRPLLVLNLTMFPSEGIPVEVLADILRGGQQTIDESGAFTMGGHTIDDPIPKYGLAVTGIVHPEHLVTNAGVRAGQCLVLTKPLGIGVAMAAHRLGLIGSEVYEAAIGQMCLLNRAGAELMQKYGIRGATDITGFGLLGHAKELAEASDVCLHIDSRSVPVLPECLSLLRDGCIPGATFRNLRFVGDMLRADCPTEYKMLLADAQTSGGLLMAVDADRAEDLVADLHRTGLHPFAAIIGYATDAEDAAKLIVTEGHHHHHH”, which “soluble on expression in E. coli” value is on record?
A: Its value is “soluble”.

Q: With “MSLNRYLAAPEIKANETLVIADRYAYFNIPSWKGAGVAVPVFSLKSEKSFGVGDFGDLKRMVDWAVSTNQKVVQILPINDTTMTHTWTDSYPYNSISIYAFHPMYADLKQMGNLKDKETAAAFNRKQKELNALSAIDYEAVNRVKWEYFHQIFKQEGEKVLASKAFRSFFEANKDWLQPYAAFSYLRDLYHTPNFREWPQYSEYNAQEIEELCRPDTADYAHIAIYFYIQFNLHLQLLEATTYAREHGVVLKGDIPIGISRNSVEAWTEPYYFNLNGQAGAPPDDFSINGQNWGFPTYNWDVMENDGYKWWMKRFQKMAEYFDAYRIDHILGFFRIWEIPMNAVHGLLGQFVPALPMSREEIESYGLSFREEFLRPYIHEYFLGQVFGPHTDYVKQTFIEPTETYEVYRMRPEFDTQRKVEAFFAGKNDEDSIWVRDGLYALISDVLFVPDRKDPNLYHPRIGVQHDFIYRALNDWEKTAFNRLYDQYYYHRHNDFWQQQAMKKLPQLTQSTRMLVCGEDLGMIPDCVAWVMNDLRILSLEIQRMPKNPAEEFGRLNEYPYRSVCTFSTHDMSTLRGWWEEDYQQTQRYYNQMLGHYGTAPAIATPELCEEIVRNHLYSNSILCILSLQDWLSMDGKWRNPNVQEERINIPANPRHYWRYRMHLTLEQLMKAESLNEKIRELVKQTGRNEGHHHHHH” as the sequence, how does the “soluble on expression in E. coli” value read?
A: The value was “soluble”.

Q: Which “soluble on expression in E. coli” value does the source give for “MSLNVGYLCTYTPKELIDAAGFTPIRIFAGDMQISLATAHIQSYACSQARGSLERALRGELDVQAVVFTRCCDTLMRLADIWERNTDMRVYNIEFPTRVEERSKDYYFNELKDFVKVLEEWGGGVTLESLRESLKLYHELEEKLKRLFSLKPDYEAAKRVQEMNVREAIKFVDERLRKAESEGGKPRVLITGSVCPFVEVYTLFEEAGFALKDDICTGTRFFTFNTPPREIGSVDEGLRFLVDKYFEKAPCPTKHFPNDDRFKYILEMAKDCDGVVFLLLKFCEPHFYDYPQLKERLEEMGKKVLLLELEFPIASIEQLRTRIEAFYEVIAEGGSHHHHHH” here?
A: The value was “soluble”.

Q: Which “soluble on expression in E. coli” value does the source give for “MSLNVIDLFSGVGGLSLGAARAGFDVKMAVEIDQHAINTHAINFPRSLHVQEDVSLLNAEIIKGFFKNDMPIDGIIGGPPCQGFSSIGKGNPDDSRNQLYMHFYRLVSELQPLFFLAENVPGIMQEKYSGIRNKAFNLVSGDYDILDPIKVKASDYGAPTIRTRYFFIGVKKSLKLDISDEVFMPKMIDPVTVKDALYGLPDIIDANWQSDSESWRTIKKDRKGGFYEKLWGQIPRNVGDTESIAKLKNNIISGCTGTLHSKIVQERYASLSFGETDKISRSTRLDPNGFCPTLRAGTARDKGSFQAVRPIHPYHPRVITPREAARLQGFPDWFRFHVTKWHSFRQIGNSVSPIVAEYILKGLYNLLNKRVQPEYLNHNSLEVREGHHHHHH” here?
A: Its value is “soluble”.

Q: With “MSLNVIMAGIDYTLAPIDIREKFSFTKSTLQAVYNDLLKNENIFGAVIVSTCNRTELYLSCEEGLYINPFELLCDAANFDYEEYSNMHVLRTGVDVIRHLCELACGVKSQIWGEDQIITQVRNAIELAREMNASDSTLEVMFRIAVTSAKKVKTTLKLSSTERSIAYSALKIIKSKENISKALVIGNGEIGRLMASILIENGYDTTITLRRYRHGDNIIPLGAKTIEYVARYEKLKDCDVVISATLSPHYTLEIDKIDRIKYPRLFIDLAVPRDIDPKIKSLDNVELYDLDSIYAGEVDKNRTEQMIQVKKIIDKYIFDYYRWYEYRKRLVLTEGHHHHHH” as the sequence, how does the “soluble on expression in E. coli” value read?
A: The value was “soluble”.

Q: For “MSLPASARWQALQEVSILNTGAELPWGGKFSGVAKLIDDAFDAIEKDNEKLKGVLQRISGYAVNEDTLRGLIILFSDTHFTRPTYNGEPVHLGAKDILGHVYEYFLSRFAQAEGKRSGQYFTPKSIVSLIVEMLEPYSGRVYDPAMGSGGFFVQTERFITAHQGNINNVSIYGQEFNPTTWKLAAMNMAIRGIDYDFGKYNADSFTQPQHIDKKMDFIMANPHFNDKEWWNESLADDPRWAYGTPPKGNANFAWLQHMIYHLSPNGKIALLLANGSMSSQTNNEGEIRKAIINADLVECMVALPGQLFTNTKIPACIWFLNRNKKRKGEVLFIDARQIGYMKDRVLRDFTADDIAKIADTLHAWQTSDGYEDQAAFCKSATLEEIKNNDFVLTPGRYVGTAEQEDDGVPFAEKMQNLTALLKEQFAKSAELEAEIKKNLGGLGYEEGHHHHHH”, which “soluble on expression in E. coli” value is on record?
A: Its value is “not soluble”.

Q: Which “soluble on expression in E. coli” value does the source give for “MSLPFITKISTQKKNTERFNIFLDDKYAFSVDADVLVKFELKKGKELDDLDIIEIQYGDEVKKGFNRALDFLSYRMRSTKEVEDHLKKKETSPPVIAEVIHRLNDYKYLNDQEFAAAYVSTHKKTNGKGPDVLFRELRAKGIDDDTIKEALSSFSFEDQTREAVKHVEKLLKKDKKLSTKELKQRAQLQLQRKGFSFDVISAAMDQIEYENDEDTEKEALRLHAEKAFRKYRYDGSYESAMKVKQFLFRKGFSLDLIEQLLQEEEYEGHHHHHH” here?
A: The value was “soluble”.

Q: With “MSLPQPKKDKPDTPLRSDAQRNRERILAVATEELTHCANAPLSAIAKKAGVGQGTFYRNFPNREALVLEIYRYGMQQVAEAAPEMLATGEPDLALRQWMDRLAEFAMTKAGLADAIRLVTSAPGAPEKPRPTPLEDAAELLLRANHEAGTIRPGVTGDDFFLVLGGLWLIDPGENWQPRVTRFLDLVMDGLRAGAPGREGHHHHHH” as the sequence, how does the “soluble on expression in E. coli” value read?
A: Its value is “soluble”.

Q: With “MSLQFFDRKETMKFPSDFIEKYKDLLGAEAEEFFTSFDQEAVSAYRINPLKKQQKDYPDPIPGTPWGYYGKISGKSSDHATGLVYSQEPAAQMVAQVAAPSKGSRVLDLAAAPGGKSTHLLSYVDNTGLLVSNEIDFTRSKVLVENLERFGAKNVVVNHTSADKLAEVFKNYFDMIVFDGPCSGEGMFRKDPDAIQYWHKDYPSELAQLQKDILADGLKMLAPGGQLVYSTCTWSPEENEGVVAWILENYPDLELVAIPKLSGMSDGIDFPETARMYPHHFKGEGQFVAKFQDKRMPEQSCIKEGKTNLNKEQKQLWDDFVKKHLKLPLDGLLQVFGDNLYLLPRGLPDLSKVKIARNGLHLGIFKKKRFEPSFALGIALTSDEVVSSIELTQEQFAQYASGNVVTLDQTLENGWYQLLVDGNGFGFAKVIGNTLKNYYPKGLRFHEGHHHHHH” as the sequence, how does the “soluble on expression in E. coli” value read?
A: Its value is “soluble”.

Q: Which “soluble on expression in E. coli” value does the source give for “MSLQFSVLASGSTGNAFYLETEDHAFLVDAGLSGKAMDGLMAQIGRKLDDVDGIFVTHEHSDHIKGLGVVARKYKLPIYANEKTWKAMENQIGKIDTDQKFVFPMETVKSFGGLDVESFGVSHDAAEPMFYVFHYSGRKLALMTDTGYVSDRMKGIIRSANVFVFESNHDVGMLQMGRYPWSIKRRILSDVGHVSNEDAALAMTDVIGDETSRIYLAHLSQDNNMKELARMSVQQTLASKGFVTGETFDLYDTDPKKATPLWLYNFSMLEHHHHHH” here?
A: The value was “not soluble”.

Q: With “MSLQKRVTDEDIKERLDKIGFRIAVMSGKGGVGKSTVTALLAVHYAKQGKKVGILDADFLGPSIPHLFGLEKGKVAVSDEGLEPVLTQRLGIKVMSIQFLLPKRETPVIWRGPLIAGMIREFLGRVAWGELDYLLIDLPPGTGDAPLTVMQDAKPNGAVIVSTPQELTAAVVEKAITMAEQTKTAVLGIVENMAYFECPNCGERTYLFGEGKASELARKYKIEFITEIPIDSDLLKLSDLGRVEEYEPDWFEFFPYEGGSHHHHHH” as the sequence, how does the “soluble on expression in E. coli” value read?
A: Its value is “soluble”.
